This passage reports inhibition of lysis of A375SM melanoma cells by I-100-CTL and I-102-CTL (51Cr release assay) results from patent US20060141532A1.

This assay has as its target HLA-A2 Ag on A375SM melanoma cells (human). Kind of assay: cell-based or functional assay.

Turning to anti-HLA-A2 mAb MA2.1 (antibody), the inhibition of lysis of A375SM melanoma cells by I-100-CTL and I-102-CTL (51Cr release assay) is greater than 50%.
